Experimental data: the RNAGym collection of RNA variant scans (doi:10.1073/pnas.2313332121)

B1: TPR t1 (parent)
chain: GACCAAUCUGCCCUCAGAGCUCGAGAACAUCUUCGGAUGCAGAGGAGGCAGGCUUCGGUGGCGCGAUAGCGCCAACGUCCUCAACCUCCAAUGCAUCCCACCACAUGAUGAUGCCUGAAGAGCCUUGGUUUUUUG

Variants of: B1
Test: polymerase ribozyme fitness, log enrichment relative to wild type (log ratio); higher = more active; in vitro selection for triplet polymerase activity
Procedure, shortened: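 Each subunit of a heterodimeric triplet polymerase ribozyme was represented by a PCR-built, transcribed mutant library that underwent triplicate single-round in vitro selection with frozen incubation at −7 °C. Extended constructs were recovered by gel excision, streptavidin-bead capture and RT-PCR, and Illumina sequencing of input and output libraries kept genotypes with ≥10 input reads and ≥1 read per output. Fitness is the logarithm of genotype enrichment relative to wild-type enrichment, from inverse-variance-weighted replicate averages, with a logarithm base of 2.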

First: GACCUAUCUGCCCUCAGAGCUCGAGAACUUCUUCGGAUGCAGAGGAGGCAGGCUUCGGUGGCGCGAUAGCACCAACGGCCUCAACCUCCAAUGCAUCCCACCACAUGAUGAUGCCUGAAGAGACUUGUUUUUUUG [A5U A29U G71A U78G C123A G128U]
Second: GACCUAUCUGCCGUCAGAGCUCGAGAACAUCUUCGGAUGCAGAGGAGGCAGGCUUCGGUGGCGCGAUAGCGAUAACGUCCUCAACCUCCAAUGCAUCCCACCACACGAUGAUGCCUGAAGAGCCUUGGUUUUUUG [A5U C13G C72A C73U U106C]
The “polymerase ribozyme fitness (log ratio)” value of the first is lower: -4.18 for the first, -3.49 for the second.

Going from GACCUAUCUGCCCUCAGAGGUCGAGAACAUCUUCGGAUGCAGAGGAGGCAGGCUUCGGUGGCGCGAUAGCGCCAACGUCCUCAACCUCCAAUGCAUCCCACCACAUGAUGAUGCCUGAAGCGUCUUGGUUUUUUG [A5U C20G A121C C123U] to GACCUAUCUGCCCUCAGAGCUCGAGAACAUCUUCGGAUGCAGAGGAGGCAGGCUUCGGUGGGGCGAUAGCGCCAACGUCCUCAACCUCCAAUGCAUCCCACCACAUGAUGAUGCCUGAAGAGCCUUGGUUUUUUG [A5U C62G], the “polymerase ribozyme fitness (log ratio)” value rises from -3.97 to -1.69.

First: GACCUAUCUGCCCUCAGAGCUAGAGAACAUCUUCGGAUGCAGAGGAGGCAGGCUUCGGUGGCGCGAUAGCGCCAACGUCCUCAACCUCCAAUGCAUCCCACCACAUGAUGAAGCCUGAAGAGCCUUGGUUUUUUG [A5U C22A U112A]
Second: GACCUAUCUGCCCUCAGAGCUCGAGAACAUCUUCGGAUGCAGAGGAGGCAGGCUUCGGUGGCGUGAUAGCGCCAACGUCAUCAACCUUCAAUGCUUCCCACCACAUGAUGAUGCCUGAAGAGCCUUGGUUUUUUG [A5U C64U C80A C88U A95U]
The “polymerase ribozyme fitness (log ratio)” value of the first is higher: -2.64 for the first, -4.14 for the second.

Compared with GACCUAUCUGCCGUCAGAGCUCGAGAACAUCUUCGGAUGCAGAGGAGGCAGGCUUCGGUGGCGCGAUAGCGCCACAGUCCUCAACCUCCAAUGCAUCCCACCACAUGAUGAUGCCUGAAGAGCCUUGGUUUUUUG [A5U C13G A75C C76A], GACCGAUCUGCCCUCAGAGCUCGAGAACAUCUUCGGAUGCAGAGGAGGCAGGCUUCGGUGGCGCGAUAGCGCCAACGACCUCAACCUCCAAUGCAUCCCACCACAUGAUGAUGCCUGAACAGCCUUGGUUUUUUG [A5G U78A G120C] is higher in “polymerase ribozyme fitness (log ratio)” value: -1.8 for the first, 0.799 for the second.

Going from GACCUAUCUGCCCUCAGAGCUCGAGAACAUCUUCGGAUGCAGGGGAGGCAGGCUUCGGUGGCGCGAUAGCGCCAACGUCCUCAACCUCCAAUGCAUCCCACAACAUGAUGAUGCCCGAAGAGCCUUGGUUUUUUG [A5U A43G C102A U116C] to GACCUAUCUGCCCUCAGAGCUCGAGAACGUCUUCGGAUGCAGAGGGGGCAGGCUUCGGUGGCGCGAUAGCGCCAACGUCCUGAACCUCCAAUGCAUCCCACCACAUGAUGAUGCCUGAAAAGCCUUGGUUUUUUG [A5U A29G A46G C82G G120A], the “polymerase ribozyme fitness (log ratio)” value rises from -5.9 to -1.34.

Compared with GACCUAUCUGCCCUCAGUGCUCGAGAACAUCUUCGGAUGCAGAGGAGGCAGGCUUCGGUGGCGCGAUAGCGCCAACGUCCUCAACCUUCAAUGCAUCCCACCACAUGAUGAUGCCUGAAGAGCCUUGGUUUUUUG [A5U A18U C88U], GACCUAUCUGCCCUCAGAGCUCGAGAACAUCUUCGGAUGCAGAGGAGGCAGGCUUCGGUGGCGCGAUAGGGCCAACGUCCUCAACCUCCAAUGCAUCCCACCACAUGAUGAUGCCUGAGGAGCCUUGGUUUUUUG [A5U C70G A119G] is higher in “polymerase ribozyme fitness (log ratio)” value: -2.74 for the first, -0.737 for the second.

Going from GACCUAUCUGCCGUCAGAGCUCGAGAACAUCUUCGGAUGCAGAGGAGGAAGGCUUCGGUGGCUCGAUAGCGCCAACGUCCGCAACCUCCAAUGCAUCCCACCACAUGAUGAUGCCUGAAGCGCCUUGGUUUUUUG [A5U C13G C49A G63U U81G A121C] to GACCUAUCUGCCCUCAGAGCUCGAGAACAUCUUCGGAUGCAGAGGAGGCAGGCUUCGGUGGCGCGAUAGCGCUAACGUCCUCAACCUCCAAUGCAUCCCACCACAUGAUGAUGCCUGAAGAACCUUGGAUUUUUG [A5U C73U G122A U129A], the “polymerase ribozyme fitness (log ratio)” value rises from -3.63 to -2.07.

Going from GACCUAUCUGCACUCAGAGCUCGAGAACAUCUUCGGAUGCAGAGGAGGCAGGCUUCGGUGGCGCGAUAGCGCCAACGUCCUCAACCUCCGAUGCAUCCCACCACAUGAUGAUGCCUGAAGAGCCUUGGUUUUUUG [A5U C12A A90G] to GACCUAUCUGCCCUGAGAGCUCGAGAACAUCUUCGGAUGCAGAGGAGGCAGGCUUCGGUGGCGCGAUAGCCCCAACGUCCUCAUCCUCCAAUGCAUCCCACCACAUGAUGAUGCCUGAAGAGCCUUGGUUUUUUG [A5U C15G G71C A84U], the “polymerase ribozyme fitness (log ratio)” value falls from -0.323 to -4.19.

Going from GACCUAUCUGCCCUCAGAGCUCGAGAACAUCUUCGGAUGCAGAGGAGGCAGGCUUGGGUGGCGCGAUAGCGCCUACGUCCUCAACCUCCAAUGCAUCCCACCACAUGAUAAUGCCGGAAGAGCGUUGGUUUUUUU [A5U C56G A74U G110A U116G C124G G135U] to GACCUGUCUGCCCUCAGAGCUCGAGAACAUCUUCGGAUGCAGAGGAGGCAGGCUUCGGUGGCGCGAUAGCGCCAACGUCCUCAACAUCCAAUGCAUCCCACAACAUGAUGAUGCCUGAAGAGCCUUGGUUUUUUG [A5U A6G C86A C102A], the “polymerase ribozyme fitness (log ratio)” value rises from -6.08 to -3.72.

Going from GACCUAUCUGCCUUCAGAGCUCGAGAACAUCUUCGGUUGCAGACGAGGCAGGCUUCGGUGGCGCGAUAGCGCCAACGGCCUCAACCUCCAAUGCAUCUCACCACAUGAUGAUGCCUGAAGAGCCUUGGUUUUUUG [A5U C13U A37U G44C U78G C98U] to GACCUAUCUGACCUCAGAGCUCGAGAACAUCUUCGGAUGCAGAGGAGGCAGGCUUCGGUGGCGCGAUAGCGCCAACGUCCUCAACCUCCAAUGCAUCCCACCACAUGAUGAUGCGUGAAGAGCCUUGGUUUUUUG [A5U C11A C115G], the “polymerase ribozyme fitness (log ratio)” value falls from -4.45 to -6.5.

For GACCUAUCUGCCCUCAGAGAUCGAGAACAUCUUCGGAUGAAGAGGAGGCAGGCUUCGGUGGCGCGAUAGCGCCAACGUCCUCAACCUCCAAUGCAUCCCACCACAUGAUGAUCCUUGAAGAGCCUUGGUUUUUUG [A5U C20A C40A G113C C115U], the “polymerase ribozyme fitness (log ratio)” value was -4.07.
